{"source": "patent US20230036928A1", "about": "(Sanofi, published 2023)", "binders": {"B1": {"name": "Ab1 (antibody, human IgG4 S228P, kappa, V domains shown)", "VH": "QVQLVQSGAEVKKPGSSVKVSCKASGYTFSSNVISWVRQAPGQGLEWMGGVIPIVDIANYAQRFKGRVTITADESTSTTYMELSSLRSEDTAVYYCASTLGLVLDAMDYWGQGTLVTVSS", "VL": "ETVLTQSPGTLSLSPGERATLSCRASQSLGSSYLAWYQQKPGQAPRLLIYGASSRAPGIPDRFSGSGSGTDFTLTISRLEPEDFAVYYCQQYADSPITFGQGTRLEIKR"}}, "target": "T1, TGF-β2", "T1 sequence (P61812 303-414, species assumed, looked up)": "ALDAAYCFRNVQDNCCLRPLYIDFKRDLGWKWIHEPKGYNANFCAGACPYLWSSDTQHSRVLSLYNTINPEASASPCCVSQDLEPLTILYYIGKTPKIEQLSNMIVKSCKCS", "experiment": "cell-based or functional assay"}
{"binder": "B1", "values": [{"measurement": "relative potency (EC50 of the reference divided by EC50 of the test sample) in mink lung cell proliferation assay with PrestoBlue read-out", "result": "~1 ratio (relative potency)"}]}
